In article PMC12607630 (2025):

B1: FtsZ (wild-type, untagged) (natural protein)
chain: MFEPMELTNDAVIKVIGVGGGGGNAVEHMVRERIEGVEFFAVNTDAQALRKTAVGQTIQIGSGITKGLGAGANPEVGRNAADEDRDALRAALEGADMVFIAAGMGGGTGTGAAPVVAEVAKDLGILTVAVVTKPFNFEGKKRMAFAEQGITELSKHVDSLITIPNDKLLKVLGRGISLLDAFGAANDVLKGAVQGIAELITRPGLMNVDFADVRTVMSEMGYAMMGSGVASGEDRAEEAAEMAISSPLLEDIDLSGARGVLVNITAGFDLRLDEFETVGNTIRAFASDNATVVIGTSLDPDMNDELRVTVVATGIGMDKRPEITLVTNKQVQQPVMDRYQQHGMAPLTQEQKPVAKVVNDNAPQTAKEPDYLDIPAFLRKQAD
B2: ZapC (untagged) (natural protein)
chain: not shown

Assays:
Assay in all cases: BLI
[1] = biological target: 6×His-ZapC^K94D (Escherichia coli, UniProt P75862 1-180, K94D)
[2] = biological target: 6×His-ZapC^F30D (Escherichia coli, UniProt P75862 1-180, F30D)
[3] = biological target: T1, SUMO-FtsZ^370-383 (Escherichia coli, UniProt P0A9A6 370-383)
T1 chain: DYLDIPAFLRKQAD

[4] = biological target: T2, SUMO-FtsZ^316-370 (Escherichia coli, UniProt P0A9A6 316-370)
T2 chain: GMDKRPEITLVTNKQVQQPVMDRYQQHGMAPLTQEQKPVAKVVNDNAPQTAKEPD

Binder	Kd [1] [µM]	Kd [2] [µM]	Kd [3] [µM]	Kd [4] [µM]
B1	2.1	2.97		
B2			11.4	50.7
